In publication doi:10.1101/2021.09.17.460839, “Structural and functional characterization of Rv0792c from Mycobacterium tuberculosis: identifying small molecule inhibitors against GntR protein” (bioRxiv, 2021):

Molecular target: the molecule itself
Assay: AUC

B1: (His)6-Rv0792c, wild type, GntR family (HutC subfamily) transcription factor from M. tuberculosis (natural protein)
chain: MTSVKLDLDAADLRISRGSVPASTQLAEALKAQIIQQRLPRGGRLPSERELIDRSGLSRVTVRAAVGMLQRQGWLVRRQGLGTFVADPVEQELSCGVRTITEVLLSCGVTPQVDVLSHQTGPAPQRISETLGLVEVLCIRRRIRTGDQPLALVTAYLPPGVGPAVEPLLSGSADTETTYAMWERRLGVRIAQATHEIHAAGASPDVADALGLAVGSPVLVVDRTSYTNDGKPLEVVVFHHRPERYQFSVTLPRTLPGSGAGIIEKRDFA
notes: not shown: His6, N-terminal, kept
  stoichiometry N: 2
